Our source for the stoichiometry N values is article PMC6509359.

Where “and” joins values, the source holds several entries; their conditions need not be identical. Equal entries are not always repeated.

Common to all, as to details: remark: other sources report otherwise
Assay [1] has as its target T1, Human USP25 (1-1055) (human), Q9UHP3.
T1 chain: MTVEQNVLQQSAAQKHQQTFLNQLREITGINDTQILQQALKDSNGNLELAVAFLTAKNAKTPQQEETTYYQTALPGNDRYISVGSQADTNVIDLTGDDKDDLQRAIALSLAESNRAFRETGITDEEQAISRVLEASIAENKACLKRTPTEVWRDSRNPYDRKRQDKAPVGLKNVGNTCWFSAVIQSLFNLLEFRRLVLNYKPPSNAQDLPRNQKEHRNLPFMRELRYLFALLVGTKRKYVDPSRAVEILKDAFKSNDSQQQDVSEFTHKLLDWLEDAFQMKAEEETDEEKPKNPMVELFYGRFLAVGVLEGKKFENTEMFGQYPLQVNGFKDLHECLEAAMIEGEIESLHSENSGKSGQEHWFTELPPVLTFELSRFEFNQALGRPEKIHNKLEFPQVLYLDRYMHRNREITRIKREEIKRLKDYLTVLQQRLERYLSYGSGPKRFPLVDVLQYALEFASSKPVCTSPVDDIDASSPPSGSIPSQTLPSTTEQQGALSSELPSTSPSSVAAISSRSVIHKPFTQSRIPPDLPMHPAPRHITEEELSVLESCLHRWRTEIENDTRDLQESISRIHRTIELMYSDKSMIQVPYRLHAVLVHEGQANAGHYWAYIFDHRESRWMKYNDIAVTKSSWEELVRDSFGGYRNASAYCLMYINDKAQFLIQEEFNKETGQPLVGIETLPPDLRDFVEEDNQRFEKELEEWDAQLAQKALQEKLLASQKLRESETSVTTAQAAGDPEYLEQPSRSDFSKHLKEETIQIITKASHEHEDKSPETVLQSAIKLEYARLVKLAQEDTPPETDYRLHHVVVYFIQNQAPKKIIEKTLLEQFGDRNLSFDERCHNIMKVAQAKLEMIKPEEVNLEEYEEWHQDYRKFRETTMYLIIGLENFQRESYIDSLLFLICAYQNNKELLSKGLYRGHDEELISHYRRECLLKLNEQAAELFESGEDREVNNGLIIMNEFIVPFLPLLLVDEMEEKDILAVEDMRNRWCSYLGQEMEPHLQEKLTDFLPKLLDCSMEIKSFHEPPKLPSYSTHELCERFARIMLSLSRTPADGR
Briefly: SEC-MALS; five-fold dilution series (1 mg/mL, 0.2 mg/mL, 0.04 mg/mL sample concentration).

Assay [2] shares this target. Briefly: not stated; oligomeric states of purified orthologs and of full-length proteins, Figures S7A, S7B and S3J.
Assay [3] shares this target. As to the kind of experiment: SEC + native gel or EMSA; recombinant full-length USP25 on HiLoad 16/600 Superdex 200 pg in buffer E immediately before native PAGE, Ponceau staining.
Assay [4] deals with T2, endogenous USP25 (human (endogenous in HEK293)), Q9UHP3.
T2 chain: T1 chain
Briefly: native gel or EMSA; native PAGE of lysate of untreated HEK293 cells, immunoblotting for the endogenous protein; recombinant USP25 tetramer and dimer fractions as size standard.

B1: Human USP25 (1-1055), Q9UHP3 1-1055 (enzyme)
chain: T1 chain
On to B1, for which the stoichiometry N is 4 and 2 in assay [1]; 2 and 4 in assay [2]; 4 and 2 in assay [3].

B2: endogenous USP25, Q9UHP3 1-1055 (enzyme)
chain: T1 chain
B2: the stoichiometry N in assay [4] was 2 and 4.
